The record followed here is article PMC6972931, “YqfB protein from Escherichia coli: an atypical amidohydrolase active towards N^4-acylcytosine derivatives” (Scientific Reports, 2020).

Assay in all cases: spectrophotometric hydrolysis assay, fit with product inhibition
Holding throughout (assay type): biochemical, Escherichia coli
Common to all, as to conditions: 50 mM potassium phosphate, pH 8.0, 22 °C

Data set [1] deals with T1, CC(=O)Nc1ccn([C@@H]2O[C@H](CO)[C@@H](O)[C@H]2O)c(=O)n1.
T1 construct: full length (103 residues), C-terminal His6 kept, pET21b, expressed in E. coli BL21(DE3) yqfB::Km, monomer
From the text:
(§1) spectrophotometric hydrolysis assay, fit with product inhibition on YqfB with a C-terminal His6 tag

The next data set concerns T2, CC(=O)Nc1cc[nH]c(=O)n1.
T2 construct: full length (103 residues), C-terminal His6 kept, pET21b, expressed in E. coli BL21(DE3) yqfB::Km, monomer
Description: as §1

Substrate in data set [2]: CC(=O)Nc1nc(O)ncc1F
Description: as §1

Substrate in data set [3]: CCCCCOC(=O)Nc1nc(=O)n([C@@H]2O[C@H](C)[C@@H](O)[C@H]2O)cc1F
Description: as §1

Substrate in data set [4]: CC(=O)Nc1ccn([C@@H]2O[C@H](CO)[C@@H](O)[C@H]2O)c(=O)n1
Description: as §1

Substrate in data set [5]: CC(C)C(=O)Nc1ccn([C@H]2C[C@H](O)[C@@H](CO)O2)c(=O)n1
Description: as §1

Substrate in data set [6]: O=C(Nc1ccn([C@@H]2O[C@H](CO)[C@@H](O)[C@H]2O)c(=O)n1)c1ccccc1
Description: as §1

Substrate in data set [7]: O=C(Nc1ccn([C@H]2C[C@H](O)[C@@H](CO)O2)c(=O)n1)c1ccccc1
Description: as §1

Substrate in data set [8]: CC(=O)Nc1ccn([C@H]2C[C@H](O)[C@@H](CO)O2)c(=O)n1
Description: as §1

Substrate in data set [9]: CC(=O)Nc1cc[nH]c(=O)n1
Description: as §1

Substrate in data set [10]: CCCCCC(=O)Nc1ccn([C@H]2C[C@H](O)[C@@H](CO)O2)c(=O)n1
Description: as §1

Substrate in data set [11]: CC(=O)Nc1ccn([C@@H]2O[C@H](CO)[C@@H](O)[C@H]2O)c(=O)n1
From the text:
spectrophotometric hydrolysis assay, fit with product inhibition on recombinant wild-type YqfB (tag-free)
The source holds these as a separate data set.

Substrate in data set [12]: CC(=O)Nc1ccn([C@@H]2O[C@H](CO)[C@@H](O)[C@H]2O)c(=O)n1
The text has this: spectrophotometric hydrolysis assay, fit with product inhibition on recombinant YqfB with an N-terminal His6 tag
This is another data set of the same source.

As a reminder, the kcat is the number of substrate molecules converted per active site and unit of time at saturation. By kcat/Km is commonly meant the turnover number divided by the Michaelis constant. Regarding “YqfB with a C-terminal His6 tag (Escherichia coli K-12; D27A)”, in data set [1], the Km result was “(2.9 ± 0.11) × 10^−4 M”, the kcat worked out at 300 ± 16 s⁻¹ and the kcat/Km was 1.2e+06 ± 10000 M⁻¹ s⁻¹.
On to “YqfB with a C-terminal His6 tag (Escherichia coli K-12; H70A)”, for which, in data set [1], the Km result is reported as “(5.0 ± 0.02) × 10^−5 M”, the kcat is 23 ± 0.029 s⁻¹ and the kcat/Km was 400000 ± 2000 M⁻¹ s⁻¹.
“YqfB with a C-terminal His6 tag (Escherichia coli K-12; Y89A)”: in [1], the Km result is reported as “(2.2 ± 0.06) × 10^−3 M”, the kcat amounted to 40 ± 1.3 s⁻¹ and the kcat/Km was 19000 ± 900 M⁻¹ s⁻¹.
Regarding “YqfB with a C-terminal His6 tag (Escherichia coli K-12; E74A)”, in the data set on CC(=O)Nc1cc[nH]c(=O)n1, the Km entry was “(3.0 ± 0.02) × 10^−4 M”, the kcat turned out to be 0.22 ± 0.001 s⁻¹ and the kcat/Km is 700 ± 4 M⁻¹ s⁻¹. In data set [1], the Km entry is listed as “(2.0 ± 0.03) × 10^−6 M”, the kcat came to 0.07 ± 0.0006 s⁻¹ and the kcat/Km worked out at 30000 ± 500 M⁻¹ s⁻¹.

B1: YqfB with a C-terminal His6 tag (Escherichia coli K-12) (protein)
chain: MQPNDITFFQRFQDDILAGRKTITIRDESESHFKTGDVLRVGRFEDDGYFCTIEVTATSTVTLDTLTEKHAEQENMTLTELKKVIADIYPGQTQFYVIEFKCL
notes: full length (103 residues), C-terminal His6 kept, pET21b, expressed in E. coli BL21(DE3) yqfB::Km, monomer
With B1, the Km result is recorded as “(2.1 ± 0.2) × 10^−3 M” in data set [2]; “(7.0 ± 0.2) × 10^−4 M” in data set [3]; “(6.2 ± 0.1) × 10^−5 M” in [4]; “(1.9 ± 0.08) × 10^−3 M” in [5]; “(5.1 ± 0.03) × 10^−3 M” in data set [6]; “(3.00 ± 0.01) × 10^−4 M” in data set [7]. Moreover, the Km entry was “(4.00 ± 0.04) × 10^−4 M” in data set [8], “(7.0 ± 0.2) × 10^−5 M” in data set [9] and “(1.4 ± 0.1) × 10^−4 M” in [10]. Also, the kcat in [2] came out at 90 ± 7 s⁻¹; in data set [3] it was 0.016 ± 0.003 s⁻¹; in data set [4] it was 157 ± 1 s⁻¹; in data set [5], 75 ± 3 s⁻¹; in data set [7], 0.07 ± 0.01 s⁻¹; in data set [8], 101 ± 1 s⁻¹. The kcat/Km in data set [2] is 40000 ± 3000 M⁻¹ s⁻¹; in [3] it was 22 ± 0.1 M⁻¹ s⁻¹; in data set [4] it was 2.2e+06 ± 100000 M⁻¹ s⁻¹; in [5], 37500 ± 600 M⁻¹ s⁻¹; in data set [7] it was 230 ± 10 M⁻¹ s⁻¹; in [8], 230000 ± 2000 M⁻¹ s⁻¹.

B2: recombinant wild-type YqfB (tag-free) (Escherichia coli K-12) (protein)
chain: MQPNDITFFQRFQDDILAGRKTITIRDESESHFKTGDVLRVGRFEDDGYFCTIEVTATSTVTLDTLTEKHAEQENMTLTELKKVIADIYPGQTQFYVIEFKCL
notes: full length (103 residues), no tag, pET21b-yqfB
Regarding B2, in [11], the Km result was “(7.0 ± 0.1) × 10^−5 M”, the kcat was 196 ± 1 s⁻¹ and the kcat/Km worked out at 2.8e+06 ± 300000 M⁻¹ s⁻¹.

B3: recombinant YqfB with an N-terminal His6 tag (Escherichia coli K-12) (protein)
chain: MQPNDITFFQRFQDDILAGRKTITIRDESESHFKTGDVLRVGRFEDDGYFCTIEVTATSTVTLDTLTEKHAEQENMTLTELKKVIADIYPGQTQFYVIEFKCL
notes: full length (103 residues), N-terminal His6 kept, pETDuet-1, expressed in E. coli BL21(DE3) yqfB::Km
For the molecule B3, in data set [12], the Km entry is “(7.0 ± 0.1) × 10^−5 M”, the kcat is 154 ± 3 s⁻¹ and the kcat/Km turned out to be 2.5e+06 ± 200000 M⁻¹ s⁻¹.
